In publication PMC8718897 (Translational Oncology, 2021):

Biological target: Krüppel-like factor 9 (KLF9) (human (endogenous in MDA-MB-231), UniProt Q13886 1-244)
Experiment: co-IP

Chain of Krüppel-like factor 9 (KLF9) (Q13886 whole entry): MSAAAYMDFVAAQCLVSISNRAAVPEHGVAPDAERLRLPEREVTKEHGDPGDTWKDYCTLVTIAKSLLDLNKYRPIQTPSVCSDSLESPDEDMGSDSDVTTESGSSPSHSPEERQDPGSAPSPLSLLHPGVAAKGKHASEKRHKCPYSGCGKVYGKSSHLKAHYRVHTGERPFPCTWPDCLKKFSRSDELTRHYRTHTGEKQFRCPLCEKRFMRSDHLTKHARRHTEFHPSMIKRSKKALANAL

B1: SIN3A (natural protein, UniProt Q96ST3 1-1273, looked up)
chain: MKRRLDDQESPVYAAQQRRIPGSTEAFPHQHRVLAPAPPVYEAVSETMQSATGIQYSVTPSYQVSAMPQSSGSHGPAIAAVHSSHHHPTAVQPHGGQVVQSHAHPAPPVAPVQGQQQFQRLKVEDALSYLDQVKLQFGSQPQVYNDFLDIMKEFKSQSIDTPGVISRVSQLFKGHPDLIMGFNTFLPPGYKIEVQTNDMVNVTTPGQVHQIPTHGIQPQPQPPPQHPSQPSAQSAPAPAQPAPQPPPAKVSKPSQLQAHTPASQQTPPLPPYASPRSPPVQPHTPVTISLGTAPSLQNNQPVEFNHAINYVNKIKNRFQGQPDIYKAFLEILHTYQKEQRNAKEAGGNYTPALTEQEVYAQVARLFKNQEDLLSEFGQFLPDANSSVLLSKTTAEKVDSVRNDHGGTVKKPQLNNKPQRPSQNGCQIRRHPTGTTPPVKKKPKLLNLKDSSMADASKHGGGTESLFFDKVRKALRSAEAYENFLRCLVIFNQEVISRAELVQLVSPFLGKFPELFNWFKNFLGYKESVHLETYPKERATEGIAMEIDYASCKRLGSSYRALPKSYQQPKCTGRTPLCKEVLNDTWVSFPSWSEDSTFVSSKKTQYEEHIYRCEDERFELDVVLETNLATIRVLEAIQKKLSRLSAEEQAKFRLDNTLGGTSEVIHRKALQRIYADKAADIIDGLRKNPSIAVPIVLKRLKMKEEEWREAQRGFNKVWREQNEKYYLKSLDHQGINFKQNDTKVLRSKSLLNEIESIYDERQEQATEENAGVPVGPHLSLAYEDKQILEDAAALIIHHVKRQTGIQKEDKYKIKQIMHHFIPDLLFAQRGDLSDVEEEEEEEMDVDEATGAVKKHNGVGGSPPKSKLLFSNTAAQKLRGMDEVYNLFYVNNNWYIFMRLHQILCLRLLRICSQAERQIEEENREREWEREVLGIKRDKSDSPAIQLRLKEPMDVDVEDYYPAFLDMVRSLLDGNIDSSQYEDSLREMFTIHAYIAFTMDKLIQSIVRQLQHIVSDEICVQVTDLYLAENNNGATGGQLNTQNSRSLLESTYQRKAEQLMSDENCFKLMFIQSQGQVQLTIELLDTEEENSDDPVEAERWSDYVERYMNSDTTSPELREHLAQKPVFLPRNLRRIRKCQRGREQQEKEGKEGNSKKTMENVDSLDKLECRFKLNSYKMVYVIKSEDYMYRRTALLRAHQSHERVSKRLHQRFQAWVDKWTKEHVPREMAAETSKWLMGEGLEGLVPCTTTCDTETLHFVSINKYRVKYGTVFKAP
Which “fold increase of association after 24 h with 5 uM PF1-SID peptide” value does the source give for B1 here?
The value was 4.6 fold.

And the “fold increase of association in PF1-SID cells against vector cells” value?
The value was 2.5 fold.
